The results in this text go back to patent US20230310634A1 (IMMUNEXT, published 2023).

In one assay the target is T1, human VISTA (human, UniProt Q9H7M9 33-194, limits assumed).
T1 sequence: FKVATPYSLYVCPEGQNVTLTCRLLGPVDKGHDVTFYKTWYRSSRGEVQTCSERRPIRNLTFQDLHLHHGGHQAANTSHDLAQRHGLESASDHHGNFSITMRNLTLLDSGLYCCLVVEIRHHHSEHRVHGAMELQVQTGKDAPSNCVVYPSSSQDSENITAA
Put plainly: SPR on a ProteOn instrument; format of antibody and antigen not stated.

For assay [1], the target named is T2, hIX50 (human VISTA ECD) (human, UniProt Q9H7M9 33-194, biotinylated in the pH ELISA (sites not given); not biotinylated when coated on the plate).
T2 construct: also called soluble VISTA; biotinylated hIX50
T2 sequence: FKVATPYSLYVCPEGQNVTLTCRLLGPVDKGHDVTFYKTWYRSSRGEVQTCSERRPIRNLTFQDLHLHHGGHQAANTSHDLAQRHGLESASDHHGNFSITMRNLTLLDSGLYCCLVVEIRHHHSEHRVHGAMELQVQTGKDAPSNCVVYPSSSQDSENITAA
Put plainly: ELISA: INX200 coated at 1 ug/mL, biotinylated hIX50 titrated at pH 7.5, streptavidin-HRP/TMB; the concentration is that of hIX50. In general terms: ELISA stands for enzyme-linked immunosorbent assay.

Assay [2] has as its target T2, hIX50 (human VISTA ECD). As to the kind of experiment: ELISA: hIX50 coated at 1 ug/mL, antibody titrated, mouse anti-human kappa-HRP/TMB, OD450.
Assay [3] has as its target T2, hIX50 (human VISTA ECD). Put plainly: ELISA: hIX50 coated at 1 ug/mL, conjugate titrated, mouse anti-human kappa-HRP/TMB, OD450.

B1: VSTB56 (antibody, V domains shown)
VH: QVQLVQSGAEVKKPGASVKVSCKASGYTFTSYWLHWVRQAPGQGLEWMGYIIPNTLHTDYNQKFKDRVTMTRDTSTSTVYMELSSLRSEDTAVYYCARLDGDYDYALDYWGQGTLVTVSS
VL: DIVMTQTPLSLSVTPGQPASISCRASESVEYYGTSFMQWYLQKPGQPPQLLIYTASNVESGVPDRFSGSGSGTDFTLKISRVEAEDVGVYYCQQSRKVPYTFGQGTKLEIK
As usually defined, the Kd is the free concentration of one partner at which half of the binding sites on the other are occupied at equilibrium, for simple one-to-one binding. Molecule B1 yielded a dissociation constant Kd in the assay with human VISTA of 20 pM.

B2: VSTB103 (antibody, V domains shown)
VH: EVQLVQSGAEVKKPGESLKISCKGSGYSFTSYWIGWVRQMPGKGLEWMGIIYPGDSDTRYSPSFQGQVTISADKSISTAYLQWSSLKASDTAMYYCARDDALYGGYYLDYWGQGTLVTVSS
VL: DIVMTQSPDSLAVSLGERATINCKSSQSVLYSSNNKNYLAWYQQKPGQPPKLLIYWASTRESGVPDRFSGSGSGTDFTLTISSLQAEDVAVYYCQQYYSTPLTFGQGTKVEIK
B2 yielded a Kd in the assay with human VISTA of 640 pM.

B3: INX200 (antibody, V domains shown)
VH: QVQLVQSGAEVKKPGASVKVSCKASGYTFANYLIGWVRQAPGQRLEWMGDIYPGGGFISYNEKFKGRVTITRDTSASTAYMELSSLRSEDTAVYYCARRFDYGGYFFDYWGQGTLVTVSS
VL: DIVMTQSPLSLPVTPGEPASISCRSSQSIVHSNGNIYLEWYLQKPGQSPQLLIYKVSNRFSGVPDRFSGSGSGTDFTLKISRVEAEDVGVYYCFQGSHVPWTFGQGTKLEIK
modifications: Alexa Fluor 488 label in the flow-cytometry results (p-1139); unlabelled in the ELISAs
For orientation: EC50 (read off the curve) means the concentration that produces a half-maximal response. As for B3, the “EC50 (read off the curve)” value is approximately 0.7 ng/mL with hIX50 (human VISTA ECD) [1] and approximately 8 ng/mL with hIX50 (human VISTA ECD) [2].

B4: VSTB92 (antibody, V domains shown)
VH: QVQLVQSGAEVKKPGASVKVSCKASGYTFANYLIGWVRQAPGQRLEWMGDIYPGGGFISYNEKFKGRVTITRDTSASTAYMELSSLRSEDTAVYYCARRFDYGGYFFDYWGQGTLVTVSS
VL: DIVMTQSPLSLPVTPGEPASISCRSSQSIVHSNGNIYLEWYLQKPGQSPQLLIYKVSNRFSGVPDRFSGSGSGTDFTLKISRVEAEDVGVYYCFQGSHVPWTFGQGTKLEIK
In the assay with human VISTA, B4 came in with a dissociation constant Kd of 90 pM. In other words, the picomolar range.

B5: INX200A (other)
VH: QVQLVQSGAEVKKPGASVKVSCKASGYTFANYLIGWVRQAPGQRLEWMGDIYPGGGFISYNEKFKGRVTITRDTSASTAYMELSSLRSEDTAVYYCARRFDYGGYFFDYWGQGTLVTVSS
VL: DIVMTQSPLSLPVTPGEPASISCRSSQSIVHSNGNIYLEWYLQKPGQSPQLLIYKVSNRFSGVPDRFSGSGSGTDFTLKISRVEAEDVGVYYCFQGSHVPWTFGQGTKLEIK
modifications: Linker/payload A (esterase sensitive linker with dexamethasone) on the reduced interchain disulfide cysteines, DAR about 8; these cysteines lie in the constant regions, which are not given here.
Turning to B5, the “EC50 (read off the curve)” value with hIX50 (human VISTA ECD) [3] was approximately 10 ng/mL.

B6: VSTB66 (antibody, V domains shown)
VH: QVQLVQSGAEVKKPGASVKVSCKASGYPFTGYFMHWVRQAPGQGLEWMGRINPYNGGTVYNQNFNDRVTMTRDTSTSTVYMELSSLRSEDTAVYYCARWTFDGLFMDYWGQGTTVTVSS
VL: DVVMTQSPLSLPVTLGQPASISCRASENVDKYGISFMNWFQQRPGQSPRRLIYATSNQGSGVPDRFSGSGSGTDFTLKISRVEAEDVGVYYCQQSKEDPYTFGQGTKLEIK
B6: in the assay with human VISTA, binding was put at a Kd of 80 pM.
